The values that follow come from US20230322957A1 (ENGMAB SARL, published 2023).

The target of experiment [1] is recombinant cynomolgus BCMA Fc(kih) (cynomolgus, UniProt A0A2K5UD97 4-51, biotinylated in vivo at the avi-tag at the C-terminus of the Fc knob chain). The experiment in a line: ratio of the SPR KDs of Table 4, human BCMA as reference. The method, then:
Assessment of binding of anti-BCMA antibodies to recombinant BCMA by surface plasmon resonance (SPR) as follow. All SPR experiments were performed on a Biacore T200 at 25° C. with HBS-EP as running buffer (0.01M HEPES pH 7.4, 0.15M NaCl, 3 mM EDTA, 0.005% Surfactant P20, Biacore, Freiburg/Germany). The avidity of the interaction between anti-BCMA antibodies and recombinant BCMA Fc(kih) (human and cynomolgus) was determined. Biotinylated recombinant human and cynomolgus BCMA Fc(kih) were directly coupled on a SA chip following instructions (Biacore, Freiburg/Germany). The immobilization level ranged from 200 to 700 RU. […] The dissociation was monitored for 180 seconds. Bulk refractive index differences were corrected for by subtracting the response obtained on the reference flow cell. Here, the anti-BCMA antibodies were flown over an empty surface previously activated and deactivated as described in the standard amine coupling kit. Apparent kinetic constants were derived using the Biacore T200 Evaluation Software (vAA, Biacore AB, Uppsala/Sweden), to fit rate equations for 1:1 Langmuir binding by numerical integration, despite the bivalency of the interaction for comparison purposes. The affinity of the interaction between anti-BCMA antibodies and recombinant human BCMA Fc(kih) was also determined. Anti-human Fab antibody (GE Healthcare) was directly coupled on a CM5 chip at pH 5.0 using the standard amine coupling kit (Biacore, Freiburg/Germany). The immobilization level was about 6500 RU. […] The dissociation was monitored for 120 seconds. Bulk refractive index differences were corrected for by subtracting the response obtained on reference flow cell. […] Kinetic constants were derived using the Biacore T100 Evaluation Software (vAA, Biacore AB, Uppsala/Sweden), to fit rate equations for 1:1 Langmuir binding by numerical integration (Table 4).

Experiment [2] has as its target T1, human BCMA on the cell surface (human, UniProt Q02223 1-184).
T1 sequence (looked up): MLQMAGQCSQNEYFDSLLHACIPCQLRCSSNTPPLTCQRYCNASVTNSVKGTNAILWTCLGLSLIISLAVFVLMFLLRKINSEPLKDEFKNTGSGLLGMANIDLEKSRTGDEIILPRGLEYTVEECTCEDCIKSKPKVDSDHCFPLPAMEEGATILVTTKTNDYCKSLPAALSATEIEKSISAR
As to the kind of experiment: cell-based or functional assay.

Experiment [3] addresses T1, human BCMA on the cell surface. As to the kind of experiment: cell-based or functional assay. This is another data set of the same source.
Experiment [4] shares this target. As to the kind of experiment: cell-based or functional assay. This is another data set of the same source.
Experiment [5] shares this target. As to the kind of experiment: cell-based or functional assay. The source holds these as a separate data set.
The target is the same in experiment [6]. The experiment in a line: cell-based or functional assay. The source holds these as a separate data set.
For experiment [7] the target is unchanged. The experiment in a line: cell-based or functional assay. The source holds these as a separate data set.

Sequence of recombinant cynomolgus BCMA Fc(kih) (A0A2K5UD97 entry or part of it): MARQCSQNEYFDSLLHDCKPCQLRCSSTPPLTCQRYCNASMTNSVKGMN

B1: Mab 21 IgG (antibody, V domains shown)
VH: EVQLLESGGGLVQPGGSLRLSCAASGFTFSDNAMGWVRQAPGKGLEWVSAISGPGSSTYYADSVKGRFTISRDNSKNTLYLQMNSLRAEDTAVYYCAKVLGWFDYWGQGTLVTVSS
VL: EIVLTQSPGTLSLSPGERATLSCRASQSVSEYYLAWYQQKPGQAPRLLIEHASTRATGIPDRFSGSGSGTDFTLTISRLEPEDFAVYYCQQYGYPPDFTFGQGTKVEIK
notes: Tested as human IgG1; also called antibody 21
In the case of B1, the “Affinity cyno/hu gap (KD cynomolgus BCMA / KD human BCMA)” value in experiment [1] is 9.3 fold.

B2: Mab 27 IgG (antibody, V domains shown)
VH: EVQLLESGGGLVQPGGSLRLSCAASGFTFSSAPMGWVRQAPGKGLEWVSAISYIGHTYYADSVKGRFTISRDNSKNTLYLQMNSLRAEDTAVYYCAKVLGWFDYWGQGTLVTVSS
VL: EIVLTQSPGTLSLSPGERATLSCRASQSVSEYYLAWYQQKPGQAPRLLIEHASTRATGIPDRFSGSGSGTDFTLTISRLEPEDFAVYYCQQYGYPPDFTFGQGTKVEIK
notes: Tested as human IgG1
For B2, the “Affinity cyno/hu gap (KD cynomolgus BCMA / KD human BCMA)” value in experiment [1] was determined as 12.7 fold.

B3: Mab 22 IgG (antibody, V domains shown)
VH: EVQLLESGGGLVQPGGSLRLSCAASGFTFSDNAMGWVRQAPGKGLEWVSAISGPGSSTYYADSVKGRFTISRDNSKNTLYLQMNSLRAEDTAVYYCAKVLGWFDYWGQGTLVTVSS
VL: EIVLTQSPGTLSLSPGERATLSCRASQSVSSYYLAWYQQKPGQAPRLLISGAGSRATGIPDRFSGSGSGTDFTLTISRLEPEDFAVYYCQQYGYPPDFTFGQGTKVEIK
notes: Tested as human IgG1; also called antibody 22; clone 22
For B3, the “Affinity cyno/hu gap (KD cynomolgus BCMA / KD human BCMA)” value in experiment [1] amounted to 15.4 fold.

B4: Mab 33 IgG (antibody, V domains shown)
VH: EVQLLESGGGLVQPGGSLRLSCAASGFTFYTNAMGWVRQAPGKGLEWVSAINRFGGSTYYADSVKGRFTISRDNSKNTLYLQMNSLRAEDTAVYYCAKVLGWFDYWGQGTLVTVSS
VL: EIVLTQSPGTLSLSPGERATLSCRASQSVSEYYLAWYQQKPGQAPRLLIEHASTRATGIPDRFSGSGSGTDFTLTISRLEPEDFAVYYCQQYGYPPDFTFGQGTKVEIK
notes: Tested as human IgG1
Turning to B4, in experiment [1], the “Affinity cyno/hu gap (KD cynomolgus BCMA / KD human BCMA)” value came out at 4.2 fold.

B5: Mab 42 IgG (antibody, V domains shown)
VH: EVQLLESGGGLVQPGGSLRLSCAASGFTFSDNAMGWVRQAPGKGLEWVSAISGPGSSTYYADSVKGRFTISRDNSKNTLYLQMNSLRAEDTAVYYCAKVLGWFDYWGQGTLVTVSS
VL: EIVLTQSPGTLSLSPGERATLSCRASQSVSDEYLSWYQQKPGQAPRLLIHSASTRATGIPDRFSGSGSGTDFTLAISRLEPEDFAVYYCQQYGYPPDFTFGQGTKVEIK
notes: Tested as human IgG1; also called antibody 42; clone 42
On to B5, for which the “Affinity cyno/hu gap (KD cynomolgus BCMA / KD human BCMA)” value in experiment [1] is 1.7 fold.

B6: Mab 39 IgG (antibody, V domains shown)
VH: EVQLLESGGGLVQPGGSLRLSCAASGFTFTQNAMGWVRQAPGKGLEWVSAISPTGFSTYYADSVKGRFTISRDNSKNTLYLQMNSLRAEDTAVYYCAKVLGWFDYWGQGTLVTVSS
VL: EIVLTQSPGTLSLSPGERATLSCRASQSVSEYYLAWYQQKPGQAPRLLIEHASTRATGIPDRFSGSGSGTDFTLTISRLEPEDFAVYYCQQYGYPPDFTFGQGTKVEIK
notes: Tested as human IgG1
As to B6, the “Affinity cyno/hu gap (KD cynomolgus BCMA / KD human BCMA)” value in experiment [1] turned out to be 14 fold.

B7: 42-TCBcv (bispecific antibody, human IgG1, kappa, L234A L235A)
heavy 1: not shown
heavy 2: EVQLLESGGGLVQPGGSLRLSCAASGFTFSDNAMGWVRQAPGKGLEWVSAISGPGSSTYYADSVKGRFTISRDNSKNTLYLQMNSLRAEDTAVYYCAKVLGWFDYWGQGTLVTVSSASTKGPSVFPLAPSSKSTSGGTAALGCLVEDYFPEPVTVSWNSGALTSGVHTFPAVLQSSGLYSLSSVVTVPSSSLGTQTYICNVNHKPSNTKVDEKVEPKSCDKTHTCPPCPAPEAAGGPSVFLFPPKPKDTLMISRTPEVTCVVVDVSHEDPEVKFNWYVDGVEVHNAKTKPREEQYNSTYRVVSVLTVLHQDWLNGKEYKCKVSNKALGAPIEKTISKAKGQPREPQVCTLPPSRDELTKNQVSLSCAVKGFYPSDIAVEWESNGQPENNYKTTPPVLDSDGSFFLVSKLTVDKSRWQQGNVFSCSVMHEALHNHYTQKSLSLSPGK
light 1: EIVLTQSPGTLSLSPGERATLSCRASQSVSDEYLSWYQQKPGQAPRLLIHSASTRATGIPDRFSGSGSGTDFTLAISRLEPEDFAVYYCQQYGYPPDFTFGQGTKVEIKRTVAAPSVFIFPPSDRKLKSGTASVVCLLNNFYPREAKVQWKVDNALQSGNSQESVTEQDSKDSTYSLSSTLTLSKADYEKHKVYACEVTHQGLSSPVTKSFNRGEC
light 2: EVQLLESGGGLVQPGGSLRLSCAASGFTFSTYAMNWVRQAPGKGLEWVSRIRSKYNNYATYYADSVKGRFTISRDDSKNTLYLQMNSLRAEDTAVYYCVRHGNFGNSYVSWFAYWGQGTLVTVSSASVAAPSVFIFPPSDEQLKSGTASVVCLLNNFYPREAKVQWKVDNALQSGNSQESVTEQDSKDSTYSLSSTLTLSKADYEKHKVYACEVTHQGLSSPVTKSFNRGEC
On to B7, for which, in experiment [2], the “EC50 redirected T-cell killing of H929 cells (LDH release), Donor 1” value amounted to 9.7 pM; the “EC50 redirected T-cell killing of H929 cells (LDH release), Donor 3” value was found to be 11.7 pM; the “EC50 redirected T-cell killing of H929 cells (LDH release), Donor 4” value came out at 7.2 pM; the “EC50 redirected T-cell killing of H929 cells (LDH release), Donor 5” value worked out at 6.8 pM. Also, in experiment [3], the “EC50 redirected T-cell killing of L363 cells (LDH release), Donor 1” value turned out to be 15.5 pM; the “EC50 redirected T-cell killing of L363 cells (LDH release), Donor 2” value was found to be 16.7 pM; the “EC50 redirected T-cell killing of L363 cells (LDH release), Donor 3” value came to 5.2 pM; the “EC50 redirected T-cell killing of L363 cells (LDH release), Donor 4” value was found to be 2.2 pM. Also, the “EC50 redirected T-cell killing of L363 cells (LDH release), Donor 5” value in experiment [3] was found to be 10.6 pM. Also, in experiment [4], the “EC50 redirected T-cell killing of RPMI-8226 cells (LDH release), Donor 2” value turned out to be 383 pM; the “EC50 redirected T-cell killing of RPMI-8226 cells (LDH release), Donor 3” value came to 18.7 pM; the “EC50 redirected T-cell killing of RPMI-8226 cells (LDH release), Donor 4” value amounted to 3.5 pM; the “EC50 redirected T-cell killing of RPMI-8226 cells (LDH release), Donor 5” value was found to be 1.5 pM. Also, in experiment [5], the “Annexin-V positive JJN-3 cells (%) at 0.1 pM, Experiment 2” value amounted to 12.8%; the “Annexin-V positive JJN-3 cells (%) at 1 pM, Experiment 1” value turned out to be 11.9%; the “Annexin-V positive JJN-3 cells (%) at 1 pM, Experiment 2” value is 13.5%; the “Annexin-V positive JJN-3 cells (%) at 10 pM, Experiment 1” value came out at 12.3%. In addition, in experiment [5], the “Annexin-V positive JJN-3 cells (%) at 10 pM, Experiment 2” value came to 13.6%; the “Annexin-V positive JJN-3 cells (%) at 100 pM, Experiment 1” value is 8.62%; the “Annexin-V positive JJN-3 cells (%) at 100 pM, Experiment 2” value amounted to 14.4%; the “Annexin-V positive JJN-3 cells (%) at 1000 pM, Experiment 1” value was 16.8%. In experiment [5], the “Annexin-V positive JJN-3 cells (%) at 1000 pM, Experiment 2” value came to 21.7%; the “Annexin-V positive JJN-3 cells (%) at 10000 pM, Experiment 1” value is 24.8%; the “Annexin-V positive JJN-3 cells (%) at 10000 pM, Experiment 2” value is 26.9%. For the same molecule, in experiment [6], the “Lysis of JJN-3 cells (%) at 0.1 pM, Experiment 2” value worked out at 17.6%; the “Lysis of JJN-3 cells (%) at 1 pM, Experiment 1” value came out at 40.3%; the “Lysis of JJN-3 cells (%) at 1 pM, Experiment 2” value was found to be 34.9%; the “Lysis of JJN-3 cells (%) at 10 pM, Experiment 1” value worked out at 39%. Moreover, in experiment [6], the “Lysis of JJN-3 cells (%) at 10 pM, Experiment 2” value worked out at 39.4%; the “Lysis of JJN-3 cells (%) at 100 pM, Experiment 1” value is 41.9%; the “Lysis of JJN-3 cells (%) at 100 pM, Experiment 2” value worked out at 55.3%; the “Lysis of JJN-3 cells (%) at 1000 pM, Experiment 1” value amounted to 84%. In experiment [6], the “Lysis of JJN-3 cells (%) at 1000 pM, Experiment 2” value worked out at 81.1%; the “Lysis of JJN-3 cells (%) at 10000 pM, Experiment 1” value was determined as 92.9%; the “Lysis of JJN-3 cells (%) at 10000 pM, Experiment 2” value was determined as 90.4%. For the same molecule, in experiment [7], the “Annexin-V positive patient bone marrow myeloma plasma cells (%) at 10 pM” value stood at 19.6%, the “Annexin-V positive patient bone marrow myeloma plasma cells (%) at 100 pM” value stood at 10.5%, the “Annexin-V positive patient bone marrow myeloma plasma cells (%) at 1000 pM” value was found to be 30% and the “Annexin-V positive patient bone marrow myeloma plasma cells (%) at 10000 pM” value is 39.9%. The “Annexin-V positive patient bone marrow myeloma plasma cells (%) at 30000 pM” value in experiment [7] turned out to be 52.5%.
